Reference: patent publication US6495376 (dated 2002)
Like-named read-outs stand apart in the source and are kept apart here. One block for each binder: values may come before it. Where no end group is shown, it is not given here. [ ]: non-standard residue; d: D form. fluorescein = N-terminal fluorescein label; pT = C[C@@H](OP(=O)(O)O)[C@H](N)C(=O)O; pS = N[C@@H](COP(=O)(O)O)C(=O)O

Tests used:
GST [1] = molecular target: T1, GST (UniProt P08515 1-218 = GST); experiment: fluorescence anisotropy
T1 construct: Control protein; also called control GST

GST-WW-domain of Pin1 = molecular target: T2, GST-WW-domain of Pin1 (human, UniProt Q13526 1-54); experiment: fluorescence anisotropy
T2 construct: range 1-54; also called GST-Pin1 WW-domain; Pin1 WW-domain; not shown: glutathione S-transferase (GST), N-terminal fusion partner

GST [2] = molecular target: T1, GST; experiment: fluorescence anisotropy; remark: listed apart in the source
Pin1^Y23A = molecular target: T3, Pin1^Y23A (human, UniProt Q13526 1-163); experiment: ELISA
T3 construct: mature; also called Pin1^Y23A mutant

Binder: fluorescein-WFYSPFLE (also called nonphosphorylated peptide) [WFYSPFLE, nonphosphorylated control peptide]
binding result (GST [1]): no binding

Binder: fluorescein-WFY[pS]PFLE (also called phosphopeptide) [Pintide analogue WFYpSPFLE]
binding result (GST [1]): no binding

Binder: fluorescein-EQPLTPVTDL [Cdc25 Peptide EQPLTPVTDL (nonphosphorylated)]
binding result (GST [2]): no binding

More lines, now with the values ahead:

binding result (GST-WW-domain of Pin1): no binding
binding result (GST [2]): no binding
Binder: fluorescein-IPGTPPPNYD [Pro-Rich peptide IPGTPPPNYD]

binding result (Pin1^Y23A): no binding
B1: tau peptide KVAVVRTPPKSPS (pT-231), SEQ ID NO: 30 (peptide)
peptide: KVAVVR[pT]PPKSPS
notes: also called pT231 tau peptide (row of Pin1^Y23A)

binding result (GST [2]): no binding
Binder: fluorescein-EQPL[pT]PVTDL (also called Cdc25C peptide) [Cdc25 Peptide EQPLpTPVTDL]
